Measurements reported in patent EP4725970A1 (Fortvita Biologics Inc., dated 2026).
Changes are numbered by the printed parent chain. Where two headings read alike, the source gives them in different places.

Assays:
[1] = molecular target: T1, human BCMA (full-length, on cells) (human, UniProt Q02223 1-184); assay: flow cytometry, GS-CHO-hBCMA cells
T1 construct: Overexpressed on GS-CHO and 293T cells; also the BCMA of H929 and L363 myeloma cells in the killing assays; also called hBCMA; wild-type BCMA
T1 sequence: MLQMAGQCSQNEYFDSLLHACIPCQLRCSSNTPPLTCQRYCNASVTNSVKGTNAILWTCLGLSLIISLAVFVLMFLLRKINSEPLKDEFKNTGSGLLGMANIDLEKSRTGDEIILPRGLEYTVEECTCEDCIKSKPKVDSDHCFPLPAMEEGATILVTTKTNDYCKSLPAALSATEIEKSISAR

[2] = molecular target: T2, human GPRC5D (full-length, on cells) (human, UniProt Q9NZD1 1-345); assay: cell-based or functional assay
[3] = molecular target: T3, human CD3 (on Jurkat cells and human T cells) (human, UniProt P07766 23-207); assay: flow cytometry, Jurkat cells
T3 construct: whole, on cells; the other chains of the complex on the cells are not described; also called CD3E

[4] = molecular target: T4, cynomolgus monkey GPRC5D (full-length, on cells) (cynomolgus monkey, UniProt A0A2K5W6I7 1-300); assay: flow cytometry, GS-CHO-cynoGPRC5D cells
T4 construct: also called cynoGPRC5D; GS-CHO-cynoGPRC5D

[5] = molecular target: T2, human GPRC5D (full-length, on cells); assay: cell-based or functional assay; remark: listed apart in the source
[6] = molecular target: T5, cynomolgus monkey BCMA (full-length, on cells) (cynomolgus monkey, UniProt A0A2K5UD97 1-183); assay: flow cytometry, GS-CHO-cynoBCMA cells
T5 construct: whole, on cells; also called cynoBCMA; GS-CHO-cynoBCMA

[7] = molecular target: T3, human CD3 (on Jurkat cells and human T …); assay: flow cytometry, human CD4 T cells
[8] = molecular target: T1, human BCMA (full-length, on cells); assay: cell-based or functional assay
[9] = molecular target: T1, human BCMA (full-length, on cells); assay: cell-based or functional assay; remark: listed apart in the source
[10] = molecular target: T2, human GPRC5D (full-length, on cells); assay: flow cytometry, GS-CHO-hGPRC5D cells
[11] = molecular target: T2, human GPRC5D (full-length, on cells); assay: cell-based or functional assay; remark: listed apart in the source
[12] = molecular target: T3, human CD3 (on Jurkat cells and human T …); assay: flow cytometry, human CD8 T cells
cyno CD3E&G-His/Free = molecular target: T6, cyno CD3E&G-His/Free (cynomolgus monkey, UniProt Q95LI5 22-117; Q95LI7 23-113); assay: BLI (Octet), 1:1 fit
T6 construct: Bought recombinant heterodimer; also called monkey CD3 E&G
T6 sequence (looked up) 1: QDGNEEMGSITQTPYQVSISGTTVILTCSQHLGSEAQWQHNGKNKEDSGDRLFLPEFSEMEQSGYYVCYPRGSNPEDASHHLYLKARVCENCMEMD
T6 sequence (looked up) 2: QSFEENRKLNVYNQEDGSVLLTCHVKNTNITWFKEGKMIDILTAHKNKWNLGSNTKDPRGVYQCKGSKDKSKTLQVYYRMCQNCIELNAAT

human CD3E&G-His/Free = molecular target: T7, human CD3E&G-His/Free (human, UniProt P07766 23-126; P09693 23-116); assay: BLI (Octet), 1:1 fit
T7 construct: Bought recombinant heterodimer; 'His/Free' as printed (one chain His-tagged); also called human CD3 E&G heterodimer

BCMA-R39A (on cells) = molecular target: T8, BCMA-R39A (on cells) (human, UniProt Q02223 1-184); assay: flow cytometry on 293T and GS CHO cells (FIG. 2I, 2J)
T8 construct: also called hBCMA-R39A; 293T-hBCMA-R39A
T8 chain: T1 sequence with R39A

BCMA-R27P (on cells) = molecular target: T9, BCMA-R27P (on cells) (human, UniProt Q02223 1-184); assay: as above
T9 construct: also called hBCMA-R27P; 293T-hBCMA-R27P
T9 chain: T1 sequence with R27P

[13] = molecular target: T1, human BCMA (full-length, on cells); assay: cell-based or functional assay; remark: listed apart in the source

T7 sequence (P07766 23-126, chain 1 of 2): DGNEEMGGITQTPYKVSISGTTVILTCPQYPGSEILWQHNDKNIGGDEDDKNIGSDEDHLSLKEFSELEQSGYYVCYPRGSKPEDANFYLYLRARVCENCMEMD
T7 sequence (P09693 23-116, chain 2 of 2): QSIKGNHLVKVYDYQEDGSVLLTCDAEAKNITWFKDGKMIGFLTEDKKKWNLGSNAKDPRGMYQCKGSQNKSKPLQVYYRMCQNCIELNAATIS
T3 sequence (P07766 23-207): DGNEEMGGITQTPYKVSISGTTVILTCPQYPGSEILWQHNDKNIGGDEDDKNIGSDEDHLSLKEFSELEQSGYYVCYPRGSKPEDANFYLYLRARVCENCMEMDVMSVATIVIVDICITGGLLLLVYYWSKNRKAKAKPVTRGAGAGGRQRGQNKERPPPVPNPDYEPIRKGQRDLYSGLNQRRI
T2 sequence (Q9NZD1 whole entry): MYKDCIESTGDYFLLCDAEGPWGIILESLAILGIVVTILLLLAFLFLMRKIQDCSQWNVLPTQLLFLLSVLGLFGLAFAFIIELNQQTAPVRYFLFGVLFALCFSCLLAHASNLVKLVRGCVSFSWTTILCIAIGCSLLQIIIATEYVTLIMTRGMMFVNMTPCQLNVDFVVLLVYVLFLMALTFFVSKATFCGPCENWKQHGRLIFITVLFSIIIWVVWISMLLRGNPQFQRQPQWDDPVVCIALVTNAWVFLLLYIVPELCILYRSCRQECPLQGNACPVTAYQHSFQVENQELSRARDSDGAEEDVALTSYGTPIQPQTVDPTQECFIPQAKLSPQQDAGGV
T5 sequence (A0A2K5UD97 entry or part of it): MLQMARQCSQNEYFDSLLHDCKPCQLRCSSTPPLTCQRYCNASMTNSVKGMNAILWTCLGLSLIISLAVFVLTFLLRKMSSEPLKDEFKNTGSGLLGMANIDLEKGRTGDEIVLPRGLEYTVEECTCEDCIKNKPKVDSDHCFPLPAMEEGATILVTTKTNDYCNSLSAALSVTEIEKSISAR
T4 sequence (A0A2K5W6I7 entry or part of it limits assumed, form in doubt): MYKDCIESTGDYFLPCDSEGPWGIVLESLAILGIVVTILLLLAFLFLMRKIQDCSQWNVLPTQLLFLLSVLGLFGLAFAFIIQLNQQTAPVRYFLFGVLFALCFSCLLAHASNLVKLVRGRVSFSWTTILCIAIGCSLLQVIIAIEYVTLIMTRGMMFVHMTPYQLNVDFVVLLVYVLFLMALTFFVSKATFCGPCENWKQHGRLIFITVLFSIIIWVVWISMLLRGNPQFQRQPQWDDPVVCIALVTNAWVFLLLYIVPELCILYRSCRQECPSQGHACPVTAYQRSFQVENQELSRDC

- EC50 [1]: 11.4 nM
- EC50 [3]: 34.5 nM
- EC50 [4]: 256 nM
- EC50 [6]: 14.2 nM
- EC50 [7]: 53.6 nM
- EC50 [10]: 80.7 nM
- EC50 [12]: 54.5 nM
- Kd (cyno CD3E&G-His/Free): 9.51 nM
- koff (cyno CD3E&G-His/Free): 0.00658 s⁻¹
- kon (cyno CD3E&G-His/Free): 692000 M⁻¹ s⁻¹
- Kd (human CD3E&G-His/Free): 13.3 nM
- koff (human CD3E&G-His/Free): 0.00859 s⁻¹
- kon (human CD3E&G-His/Free): 646000 M⁻¹ s⁻¹
- binding result (BCMA-R39A (on cells)): binds
- binding result (BCMA-R27P (on cells)): binds
B1: B3 (24) (hz5E12_sp34.24_497_triFab) (trispecific antibody, human IgG1, kappa, lambda, L234A L235A)
heavy 1: not shown
light 1: DIVMTQSPDSLAVSLGERATINCRASESVDSYGITFMNWYQQKPGQPPKLLIYAASNQGSGVPDRFSGSGSGTDFTLTISSLQAEDVAVYYCQQSKEVPWTFGQGTKLEIKRTVAAPSVFIFPPSDEQLKSGTASVVCLLNNFYPREAKVQWKVDNALQSGNSQESVTEQDSKDSTYSLSSTLTLSKADYEKHKVYACEVTHQGLSSPVTKSFNRGEC
heavy 2: not shown
light 2: DIQMTQSPSSLSASVGDRVTITCRASQSISRYLNWYQDKPGKAPKLLIYAASSLQSGVPSRFSGSGSGTDFTLTISSLQPEDFATYYCQQKYFDITFGGGTKVEIKRTVAAPSVFIFPPSDECLKSGTASVVCLLNNFYPREAKVQWKVDNALQSGNSQESVTEQDSKDSTYSLSSTLTLSKADYEKHKVYACEVTHQGLSSPVTKSFNRGES
light 3: QAVVTQEPSLTVSPGGTVTLTCRSSTGAVTTSNYANWVQKKPGQAPRGLIGGTNKRAPGVPARFSGSLLGDKAALTLLGAQPEDEAEYYCALWYSNLWVFGQGTKLTVLGQPKAAPSVTLFPPSSEELQANKATLVCLISDFYPGAVTVAWKADSSPVKAGVETTTPSKQSNNKYAASSYLSLTPEQWKSHRSYSCQVTHEGSTVEKTVAPTECS
notes: also called Exemplary antibody No. 1
- EC50 of PBMC killing of H929 ko BCMA cells (LDH) [2]: 0.00149 nM
- EC50 of PBMC killing of H929 ko BCMA cells, donor1 [5]: 0.00931 nM
- EC50 of PBMC killing of H929 ko GPRC5D cells (LDH) [8]: 0.0867 nM
- EC50 of PBMC killing of H929 ko GPRC5D cells (LDH) [9]: 0.017 nM
- EC50 of PBMC killing of H929 ko BCMA cells (LDH) [11]: 0.00698 nM
- EC50 of PBMC killing of H929 ko GPRC5D cells, donor1 [13]: 0.0175 nM
